Laboratory results taken from patent US20220241369A1, “COMPOSITIONS AND METHODS OF MODULATING INFLAMMATION” (La Jolla Institute for Allergy and Immunology, priority 2018, published 2022).

Tests used:
IgE+ mMCP-1+ mast cells = test: Localization of gavaged HRF inhibitors in jejunum by confocal microscopy; assay type: in vivo, mouse; details: using anti-His tag, data not shown
Method: HRF multimers in the jejunum of non-sensitized/OVA challenged (Cont, n=6) or OVA-sensitized/OVA-challenged (OVA, n=5) mice were quantified by a newly developed ELISA (FIG. 3A, FIG. 3C). HRF was also measured by ELISA (FIG. 3B). HRF dimer and monomer were quantified by western blotting in control (Cont) and food allergic mice treated without (OVA) or with GST (GST) or GST-N19 (N19) (n=5 for each group) (FIG. 3D). Allergic diarrhea was induced by 6 challenges. On the day of 7th challenge, the mice were gavaged with 0.1 mg of GST or GST-N19 (FIG. 3E). One hour later, mice were sacrificed without OVA challenge. Jejunum tissues were stained for GST, IgE, and mMCP-1 before confocal microscopy (n=5 for GST and n=6 for GST-N19). Arrows indicate cells positive for GST or GST-N19 as well as IgE and mMCP-1. […] Bars=50 μm.
Jejunum biopsy was fixed in 4% paraformaldehyde at 4° C., washed in 10-20% sucrose in phosphate buffered saline, and embedded in O.C.T. compound (Sakura Finetek, Japan). Cyrosections were made in 6 μm and blocked with 2% skim milk. Immunostaining was performed with anti-HRF (rabbit polyclonal FL-172), anti-GST (rabbit polyclonal Z-5) (Santa Cruz Biotechnology), anti-IgE (clone RME-1 from Biolegend and clone R35-72 from BD Biosciences), anti-mMCP1 (Catalog #AF5146, R&D Systems), anti-CD45 (clone 30-F11), anti-CD63 (clone NVG-2) (Biolegend), and anti-Siglec F (clone E50-2440, BD Biosciences) as primary antibodies, and anti-Rabbit Alexa Fluor 647 (Catalog #A21245), anti-Rat Alexa Fluor 568 (Catalog #A11077), and anti-Sheep Alexa Fluor 555 (Catalog #A11015) (Thermo Fisher Scientific) as secondary antibodies. Coverslips were mounted with Prolong Gold with DAPI (Thermo Fisher Scientific) and fluorescence was observed under Leica TCS SP2 confocal microscopy (Leica) and Nuance Multi spectral Imaging System (PerkinElmer).
Applicant next tested whether HRF inhibitors target mucosal mast cells. To this end, mice with allergic diarrhea were i.g. gavaged with GST-N19 or GST, and their location was identified 1 h after their gavage.

[1] = tested on: sensitization phase of murine food allergy; test: Pretreatment with HRF inhibitor before sensitization with OVA plus alum; assay type: in vivo, mouse; details: 100 μg i.g. one day before i.p. immunization on days 0 and 14
Method: Mice were i.g. pretreated with 100 μg of GST, GST-N19, HRF-2CA or PBS (OVA) one day before i.p. immunization with OVA plus alum on days 0 and 14. From day 28, mice were i.g. challenged with OVA three times a week. (FIG. 9A) Procedure scheme. (FIG. 9B) The development of diarrhea was monitored after OVA challenge. (n=5 for OVA, n=4 for GST, n=5 for N19, n=5 for 2CA, and n=3 each for unsensitized pretreated groups (not shown)). (FIG. 9C, FIG. 9D) Total IgE and IgG1 were measured by ELISA.
Whether HRF inhibitors affect the sensitization phase of food allergy was tested.

B1: HRF-2CA-His6, a monomeric mutant of mouse HRF (protein)
chain: MIIYRDLISHDELFSDIYKIREIADGLALEVEGKMVSRTEGAIDDSLIGGNASAEGPEGEGTESTVVTGVDIVMNHHLQETSFTKEAYKKYIKDYMKSLKGKLEEQKPERVKPFMTGAAEQIKHILANFNNYQFFIGENMNPDGMVALLDYREDGVTPFMIFFKDGLEMEKAHHHHHH
IgE+ mMCP-1+ mast cells targeted by the His-tagged substance (IgE+ mMCP-1+ mast cells): 64.0±2.69% | sensitization phase of murine food allergy [1]: do not affect
